Substitutions are numbered along the chain they refer to.
B1: C40B138 (antibody, human IgG4 S228P, lambda, F234A L235A)
heavy: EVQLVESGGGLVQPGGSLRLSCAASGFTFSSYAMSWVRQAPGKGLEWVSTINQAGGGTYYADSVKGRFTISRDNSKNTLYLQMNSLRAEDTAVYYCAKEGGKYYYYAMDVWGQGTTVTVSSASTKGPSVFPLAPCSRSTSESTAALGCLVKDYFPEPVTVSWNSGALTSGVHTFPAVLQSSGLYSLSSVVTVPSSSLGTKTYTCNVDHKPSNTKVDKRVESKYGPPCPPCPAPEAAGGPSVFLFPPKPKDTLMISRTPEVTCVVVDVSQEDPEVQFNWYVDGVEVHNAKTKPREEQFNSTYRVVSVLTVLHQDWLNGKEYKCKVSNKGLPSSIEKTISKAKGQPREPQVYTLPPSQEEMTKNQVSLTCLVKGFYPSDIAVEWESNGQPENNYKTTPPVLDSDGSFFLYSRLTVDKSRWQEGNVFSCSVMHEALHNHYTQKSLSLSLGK
light: SYELTQPPSVSVSPGQTASITCSGDKLGDKYAAWYQQKPGQSPVLVIYQDSRRPSGIPERFSGSNSGNTATLTISGTQAMDEADYYCQAWASSTVVFGGGTKLTVLGQPKAAPSVTLFPPSSEELQANKATLVCLISDFYPGAVTVAWKADSSPVKAGVETTTPSKQSNNKYAASSYLSLTPEQWKSHRSYSCQVTHEGSTVEKTVAPTECS
notes: IgG4PAA
B2: C40B179 (antibody, human IgG1, lambda)
heavy: EVQLVESGGGLVQPGGSLRLSCAASGFTFSSYAMSWVRQAPGKGLEWVSTINQAGGGTYYADSVKGRFTISRDNSKNTLYLQMNSLRAEDTAVYYCAKEGGKYYYYALDVWGQGTTVTVSSASTKGPSVFPLAPSSKSTSGGTAALGCLVKDYFPEPVTVSWNSGALTSGVHTFPAVLQSSGLYSLSSVVTVPSSSLGTQTYICNVNHKPSNTKVDKKVEPKSCDKTHTCPPCPAPEAAGASSVFLFPPKPKDTLMISRTPEVTCVVVDVSAEDPEVKFNWYVDGVEVHNAKTKPREEQYNSTYRVVSVLTVLHQDWLNGKEYKCKVSNKALPSSIEKTISKAKGQPREPQVYTLPPSREEMTKNQVSLTCLVKGFYPSDIAVEWESNGQPENNYKTTPPVLDSDGSFFLYSKLTVDKSRWQQGNVFSCSVMHEALHNHYTQKSLSLSPGK
light: B1 light
notes: IgG1sigma
B3: C40B136 (antibody, human IgG4 S228P, lambda, F234A L235A)
heavy: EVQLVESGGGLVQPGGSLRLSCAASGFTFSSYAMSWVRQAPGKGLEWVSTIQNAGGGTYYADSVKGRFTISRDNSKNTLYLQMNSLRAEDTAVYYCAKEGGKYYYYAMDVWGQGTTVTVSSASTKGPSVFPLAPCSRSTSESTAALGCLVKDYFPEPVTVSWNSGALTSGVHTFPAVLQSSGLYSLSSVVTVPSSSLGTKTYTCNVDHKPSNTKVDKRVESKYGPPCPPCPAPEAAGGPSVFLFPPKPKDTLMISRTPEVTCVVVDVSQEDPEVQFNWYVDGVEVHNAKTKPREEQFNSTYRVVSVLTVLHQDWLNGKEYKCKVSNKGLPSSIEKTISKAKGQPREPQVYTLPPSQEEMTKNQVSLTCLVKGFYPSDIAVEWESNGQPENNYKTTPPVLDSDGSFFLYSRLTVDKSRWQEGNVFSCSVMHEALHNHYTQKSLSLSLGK
light: B1 light
notes: IgG4PAA
B4: C40B180 (antibody, human IgG4 S228P, lambda, F234A L235A)
heavy: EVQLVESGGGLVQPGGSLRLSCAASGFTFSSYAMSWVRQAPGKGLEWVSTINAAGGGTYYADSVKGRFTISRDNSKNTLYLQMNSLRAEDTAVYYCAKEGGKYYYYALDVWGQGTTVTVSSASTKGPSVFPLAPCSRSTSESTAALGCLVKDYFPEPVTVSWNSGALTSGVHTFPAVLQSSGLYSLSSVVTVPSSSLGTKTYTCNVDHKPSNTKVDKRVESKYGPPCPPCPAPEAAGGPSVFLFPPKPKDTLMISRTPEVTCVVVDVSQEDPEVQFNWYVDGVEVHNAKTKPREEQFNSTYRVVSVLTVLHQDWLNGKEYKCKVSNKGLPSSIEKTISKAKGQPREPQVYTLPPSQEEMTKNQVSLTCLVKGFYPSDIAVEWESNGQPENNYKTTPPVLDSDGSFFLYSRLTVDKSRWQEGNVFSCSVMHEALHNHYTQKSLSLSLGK
light: B1 light
notes: IgG4PAA
B5: C40B183 (antibody, human IgG4 S228P, lambda, F234A L235A)
heavy: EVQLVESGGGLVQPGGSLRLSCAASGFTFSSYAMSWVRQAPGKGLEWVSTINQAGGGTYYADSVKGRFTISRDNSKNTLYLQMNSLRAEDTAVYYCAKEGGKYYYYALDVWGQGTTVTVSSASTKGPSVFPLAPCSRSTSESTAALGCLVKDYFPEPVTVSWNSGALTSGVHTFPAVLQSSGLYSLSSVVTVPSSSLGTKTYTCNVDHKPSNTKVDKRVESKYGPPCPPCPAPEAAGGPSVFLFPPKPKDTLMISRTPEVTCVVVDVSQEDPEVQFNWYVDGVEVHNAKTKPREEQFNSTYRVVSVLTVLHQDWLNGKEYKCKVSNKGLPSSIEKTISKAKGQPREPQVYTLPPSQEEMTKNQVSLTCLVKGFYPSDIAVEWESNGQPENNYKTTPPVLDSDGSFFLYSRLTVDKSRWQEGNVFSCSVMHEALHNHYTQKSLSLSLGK
light: B1 light
notes: IgG4PAA
B6: C40B135 (antibody, human IgG4 S228P, lambda, F234A L235A)
heavy: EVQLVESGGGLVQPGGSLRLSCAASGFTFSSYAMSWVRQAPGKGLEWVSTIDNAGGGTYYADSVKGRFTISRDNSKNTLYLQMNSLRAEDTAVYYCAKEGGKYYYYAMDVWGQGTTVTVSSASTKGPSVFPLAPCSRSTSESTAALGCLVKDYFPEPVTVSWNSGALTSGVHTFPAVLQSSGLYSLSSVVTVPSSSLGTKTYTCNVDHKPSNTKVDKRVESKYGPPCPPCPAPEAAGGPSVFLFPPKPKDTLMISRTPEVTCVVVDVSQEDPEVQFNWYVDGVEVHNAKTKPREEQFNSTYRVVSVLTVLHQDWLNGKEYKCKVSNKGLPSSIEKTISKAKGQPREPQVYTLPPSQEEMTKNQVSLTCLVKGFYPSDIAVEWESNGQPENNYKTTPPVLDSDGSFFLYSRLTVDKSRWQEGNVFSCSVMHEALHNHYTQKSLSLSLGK
light: B1 light
notes: IgG4PAA
B7: C40B131 (antibody, human IgG4 S228P, lambda, F234A L235A, V domains shown)
VH: EVQLVESGGGLVQPGGSLRLSCAASGFTFSSYAMSWVRQAPGKGLEWVSTINAAGGGTYYADSVKGRFTISRDNSKNTLYLQMNSLRAEDTAVYYCAKEGGKYYYYAMDVWGQGTTVTVSS
VL: SYELTQPPSVSVSPGQTASITCSGDKLGDKYAAWYQQKPGQSPVLVIYQDSRRPSGIPERFSGSNSGNTATLTISGTQAMDEADYYCQAWASSTVVFGGGTKLTVLG
notes: IgG4PAA
B8: C40B16 (antibody, human IgG1, lambda, V domains shown)
VH: B7 VH with K43R, A53N, A54S, Q82H
VL: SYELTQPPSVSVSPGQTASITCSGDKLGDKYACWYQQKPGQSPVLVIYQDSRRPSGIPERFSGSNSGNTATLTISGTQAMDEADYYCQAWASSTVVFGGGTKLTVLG
notes: Wild-type IgG1, lambda light chain; also called parental C40B16
B9: C40B127 (antibody, human IgG1, lambda)
heavy: B2 heavy with L108M
light: B1 light
notes: IgG1sigma
B10: C40B125 (antibody, human IgG1, lambda)
heavy: B2 heavy with N52Q, Q53N, L108M
light: B1 light
notes: IgG1sigma
B11: C40B124 (antibody, human IgG1, lambda)
heavy: B2 heavy with N52D, Q53N, L108M
light: B1 light
notes: IgG1sigma

How the values were obtained:
[1] = target: T1, cyno CD40 on cyno spleen B cells (Macaca fascicularis (cynomolgus), UniProt P25942 21-277 (human entry)); test: cell-based or functional assay
T1 chain: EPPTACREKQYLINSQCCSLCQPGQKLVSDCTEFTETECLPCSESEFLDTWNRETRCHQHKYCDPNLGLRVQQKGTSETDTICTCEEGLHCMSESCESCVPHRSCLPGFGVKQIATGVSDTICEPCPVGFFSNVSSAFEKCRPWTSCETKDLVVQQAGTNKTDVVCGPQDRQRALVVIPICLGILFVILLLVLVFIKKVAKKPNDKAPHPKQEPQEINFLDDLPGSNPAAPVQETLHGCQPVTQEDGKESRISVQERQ

[2] = target: T2, human CD40 on cells (human tonsillar B cells, human dendritic cells, HEK-Blue CD40L cells) (human, UniProt P25942 21-277); test: cell-based or functional assay
[3] = target: T2, human CD40 on cells (human tonsillar B …); test: cell-based or functional assay; remark: listed apart in the source
[4] = target: T3, human CD40 (analyte in SPR) (human, UniProt P25942 21-193); test: SPR, ProteOn XPR36, mAb captured on anti-human IgG Fc, CD40 as analyte, 25 C, 1:1 Langmuir
T3 construct: also called huCD40
Experimental: Affinity of the antibodies to human CD40 was assessed using Surface Plasmon Resonance (SPR) using a ProteOn XPR36 system (BioRad). […] Approximately 5000 RU (response units) of mAbs were immobilized. The kinetic experiments were performed at 25° C. in running buffer (DPBS+0.01% P20+100 μg/ml BSA). To perform kinetic experiments, 200 RU of mAbs were captured followed by injections of analytes (human or cyno CD40) at 5 concentrations (in a 4-fold serial dilution). The association phase was monitored for 3 minutes at 50 μL/min, then followed by 15 minutes of buffer flow (dissociation phase). The chip surface was regenerated with two 18 second pulses of 100 mM H₃PO₄ (Sigma, Cat#7961) at 100 μL/min.
The collected data were processed using ProteOn Manager software. First, the data was corrected for background using inter-spots. Then, double reference subtraction of the data was performed by using the buffer injection for analyte injections. The kinetic analysis of the data was performed using a Langmuir 1:1 binding model. The results were reported in the format of Ka (On-rate), Kd (Off-rate) and KD (equilibrium dissociation constant).

[5] = target: T3, human CD40 (analyte in SPR); test: affinity in benchmark table; method not restated (SPR ProteOn of Example 3 presumed)

Row | Binder | IC50, sCD40L-driven cyno B-cell proliferation [1] | IC50, mCD40L-driven human B-cell proliferation [2] | IC50, sCD40L-driven human B-cell proliferation [2] | IC50, mCD40L-driven DC IL-12p40 production [3] | IC50, sCD40L-driven DC IL-12p40 production [3] | Kd [4] | koff [4] | kon [4] | Kd [5]
1 | B1 | 0.075 nM | 0.106 nM | 0.048 nM | 0.341 nM | 0.262 nM | 0.0599 nM | 0.000215 s⁻¹ | 3.58e+06 M⁻¹ s⁻¹ | –
2 | B2 | 0.119 nM | 0.178 nM | 0.132 nM | 0.297 nM | 0.184 nM | 0.0933 nM | 0.000267 s⁻¹ | 2.86e+06 M⁻¹ s⁻¹ | 0.0343 nM
3 | B3 | 0.065 nM | 0.122 nM | 0.087 nM | 0.379 nM | 0.246 nM | 0.0343 nM | 0.000113 s⁻¹ | 3.3e+06 M⁻¹ s⁻¹ | –
4 | B4 | 0.109 nM | 0.136 nM | 0.092 nM | 0.222 nM | 0.225 nM | 0.137 nM | 0.000366 s⁻¹ | 2.67e+06 M⁻¹ s⁻¹ | 0.0599 nM
5 | B5 | 0.11 nM | 0.14 nM | 0.103 nM | 0.291 nM | 0.208 nM | 0.121 nM | 0.00035 s⁻¹ | 2.91e+06 M⁻¹ s⁻¹ | 0.107 nM
6 | B6 | 0.077 nM | 0.131 nM | 0.056 nM | 0.43 nM | 0.329 nM | 0.0496 nM | 0.000145 s⁻¹ | 2.93e+06 M⁻¹ s⁻¹ | –
7 | B7 | – | 0.099 nM | – | 0.323 nM | 0.33 nM | 0.0812 nM | 0.000286 s⁻¹ | 3.52e+06 M⁻¹ s⁻¹ | –
8 | B8 | – | – | – | – | – | 0.0368 nM | 0.000157 s⁻¹ | 4.27e+06 M⁻¹ s⁻¹ | –
9 | B9 | 0.066 nM | 0.111 nM | 0.073 nM | 0.383 nM | 0.27 nM | 0.0303 nM | 0.000115 s⁻¹ | 3.79e+06 M⁻¹ s⁻¹ | –
10 | B10 | 0.083 nM | 0.128 nM | 0.088 nM | 0.393 nM | 0.244 nM | 0.0349 nM | 0.000136 s⁻¹ | 3.89e+06 M⁻¹ s⁻¹ | –
11 | B11 | – | 0.118 nM | – | 0.507 nM | 0.387 nM | 0.0416 nM | 9.56e-05 s⁻¹ | 2.3e+06 M⁻¹ s⁻¹ | –
